Measurements reported in US20200216532A1.
Substitutions are numbered along the chain they refer to. In names and notes the source's numbering stands.

B1: SEQ ID NO: 23, Wildtype VHH (VHH)
VHH: EVQLVESGGGLVQAGGSLRLSCAASGRTFNNYAMGWFRRAPGKEREFVAAITRSGVRSGVSAIYGDSVKDRFTISRDNAKNTLYLQMNSLKPEDTAVYTCAASAIGSGALRRFEYDYSGQGTQVTVSS
B2: SEQ ID NO: 24, Wildtype VHH + A14P (VHH)
VHH: B1 VHH with A14P
B3: SEQ ID NO: 25, Wildtype VHH + K83R (VHH)
VHH: B1 VHH with K91R
B4: SEQ ID NO: 26, Wildtype VHH + Q108L (VHH)
VHH: B1 VHH with Q123L
B5: SEQ ID NO: 27, Wildtype VHH + A14P + K83R + Q108L (VHH)
VHH: B1 VHH with A14P, K91R, Q123L
B6: SEQ ID NO: 28, Wildtype VHH + A14P + R39Q + K83R + T91Y + Q108L (VHH)
VHH: B1 VHH with A14P, R39Q, K91R, T99Y, Q123L
B7: SEQ ID NO: 29, Wildtype VHH + A14P + R39Q + K83R + T91Y + Q108L + 1 additional A at C-terminus (A114) (VHH)
VHH: B1 VHH with A14P, R39Q, K91R, T99Y, Q123L
B8: SEQ ID NO: 30, Wildtype VHH + A14P + R39Q + K83R + T91Y + Q108L + 3 A's at C-terminus (A114 + A115 + A116) (VHH)
VHH: B1 VHH with A14P, R39Q, K91R, T99Y, Q123L
B9: NB 3.12 (VHH)
VHH: EVQLVESGGGLVQAGGSLRLSCAASRSIGRLDRMGWYRHRPGEPRELVATITGGSSINYGDSVKGRFTISIDNSKNTVYLQMNSLRPEDTAVYYCNFNKYVTSRDTWGQGTQVTVSS
B10: NB 3.13 (VHH)
VHH: B9 VHH with A14P
B11: NB 3.14 (VHH)
VHH: B9 VHH with A14P, Q112L, T114Q
B12: NB 3.15 (VHH)
VHH: B9 VHH with L11S, A14P, Q112L
B13: NB 3.10 (VHH)
VHH: B9 VHH with Q112L
B14: NB 3.11 (VHH)
VHH: B9 VHH with A14P, R86K, Q112L

Each binder was assayed against affinity purified antibody IHuP#002-001-ABL-08 (assay: bridging/competition ADA assay, 10 ug/ml ISV vs labelled ISV).
For B1, the % reduction was 7.3% and the ECLU confirmatory assay was 2710 ECLU.
With B2 the % reduction was 90.8% and the ECLU confirmatory assay was 268 ECLU.
Work on B3 yielded a % reduction of 15.7% and an ECLU confirmatory assay of 2460 ECLU.
B4 gave a % reduction of 13.2% and an ECLU confirmatory assay of 2530 ECLU.
Binder B5 has a % reduction of 89.1% and an ECLU confirmatory assay of 319 ECLU.
With B6 the % reduction was 91.4% and the ECLU confirmatory assay was 251 ECLU.
With B7 the % reduction was 58.6% and the ECLU confirmatory assay was 1210 ECLU.
B8 showed a % reduction of -13.1% and an ECLU confirmatory assay of 3300 ECLU.

The binders below were run against antibodies against ISV in serum sample IHUS#B09032311A3 (assay: ECL drug-displacement assay vs labelled SEQ ID NO:1).
For B1, the % reduction was 20% and the ECLU confirmatory assay was 1780 ECLU.
Binder B2 has a % reduction of 91% and an ECLU confirmatory assay of 205 ECLU.
Binder B3 has a % reduction of 37% and an ECLU confirmatory assay of 1400 ECLU.
B4 was tested, and the % reduction was 31% and the ECLU confirmatory assay was 1530 ECLU.
B6 gave a % reduction of 90%.
With B7 the % reduction was 18%.
B8 was tested, and the % reduction was 13%.

These binders were tested against antibodies against ISV in serum sample IHUS#B09032311A20 in the same assay as above.
B1 showed a % reduction of 53% and an ECLU confirmatory assay of 8680 ECLU.
B2 gave a % reduction of 96% and an ECLU confirmatory assay of 668 ECLU.
Work on B3 yielded a % reduction of 63% and an ECLU confirmatory assay of 6910 ECLU.
With B4 the % reduction was 62% and the ECLU confirmatory assay was 6990 ECLU.

What follows are binders tested against antibodies against ISV in serum sample IHUS#B09032311A1 in the same assay as above.
For B1, the % reduction was 4% and the ECLU confirmatory assay was 60 ECLU.
In the case of B2, the % reduction is reported as 10% and the ECLU confirmatory assay is reported as 56 ECLU.
In the case of B3, the % reduction is reported as 1% and the ECLU confirmatory assay is reported as 62 ECLU.
With B4 the % reduction was 5% and the ECLU confirmatory assay was 59 ECLU.

What follows are binders tested against analytical polyclonal antibody generated in Example 2 (assay: SPR Biacore T100, polyclonal immobilized, 500 nM ISV).
In the case of B9, the Binding (RU) at end of injection is reported as 86 RU.
In the case of B10, the Binding (RU) at end of injection is reported as 90 RU.
With B11 the Binding (RU) at end of injection was 79 RU.
With B12 the Binding (RU) at end of injection was 22 RU.
Binder B13 has a Binding (RU) at end of injection of 91 RU.
Work on B14 yielded a Binding (RU) at end of injection of 88 RU.
